B1: ANKRD9 (parent)
chain: VGAAGSARQELLGDRPRWQRLLGE

Variants of: B1
Experiment: protein stability index of a GFP-peptide fusion (GPS, HEK-293T) (PSI 1-6); higher = more stable
Conditions: c terminus: a fixed tail appended
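Also: lentivirally expressed fusions sorted by FACS into six bins by GFP to DsRed ratio, PSI derived from sequencing read proportions per bin multiplied by bin number.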

Protein stability index, by site and new letter:
G23: Q 3.4, P 3.22, Y 2.88, I 2.88, R 2.99, W 2.64, N 3.12, E 3.39
P16: K 3.68, V 3.35, A 3.68, W 1.84, I 2.92, Y 3.28, G 2.98, D 3.1, R 3.31, S 3.16, Q 2.65, H 2.83
R17: H 4.01, M 2.72, V 3, Y 2.37, L 2.73, T 3.43, K 3.53, N 3.29, E 3.81, A 3.33, S 4.09, F 1.94, Q 3.47, P 4.29
V1: C 1.95, E 2.77, M 3.03, I 2.35, R 2.75, T 3.38, F 2.7, D 4.49, G 3.13, L 2.86
Q9: M 3, Y 2.27, L 2.81, D 3.7, G 3.41, K 3.05, C 2.56, E 2.11, R 3.04, I 2.96, T 3.13, V 3.14, A 3.37, H 3.38, F 2.81
R20: F 3.28, T 2.67, W 3.32, V 2.81, P 2.19, C 2.71, L 2.72, A 2.58, I 2.07, Q 2.68, D 1.25, M 2.81, Y 2.62, N 3.46, K 2.71, H 2.52, G 2.74
L11: V 3.98, I 3.3, M 3.77, S 4.02, T 3.6, G 3.43, N 3.71, C 3.22, P 3.86, E 4.13, Q 3.8, H 2.85, R 2.48, W 2.61, K 3.69, F 4.5
G13: E 3.92, K 3.39, Y 2.77, L 2.66, N 3.55, T 2.97, C 2.77, W 1.9, S 2.72, P 3.7, I 2.86, D 2.73, R 2.81, H 3.46
E24: V 2.45, Q 2.63, S 2.77, P 2.75, I 2.27, N 3.17, M 3.34, K 3.7, C 2.1, Y 2.37, D 3.13, W 2.33, A 3, F 2.68, H 2.96
Q19: C 3.27, H 3.14, W 2.81, L 2.56, Y 2.59, N 3.94, T 2.49, G 2.94, E 2.58, V 2.9, M 3.26, F 2.51, A 2.15, D 2.83, S 2.91
W18: G 5.32, H 4.14, S 4.2, E 4.45, A 4.38, M 3.57, Y 3.78, R 4.93, Q 4.1, L 4.36, P 4.98, F 3.54, V 4.4, K 4.64, D 4.63
A7: V 2.73, M 3.87, Q 4.21, Y 2.43, N 3.74, W 2.53, R 3.08, C 3.44, K 2.94, S 2.93, I 3.49, H 3.36, L 4.03, T 3.62, D 3.65, P 2.98

Reference: the supplement of paper PMC10567573
